Reference: patent US8088412B2, “Intralymphatic chemotherapy drug carriers” (priority 2008, dated 2012)
Where two headings read alike, the source gives them in different places. Marks after values point to notes of the source that are not given here.

Key:
MCF7 = experiment: In vitro cell toxicity (DMEM, resazurin blue, 72 hrs); format: cell-based, human
Procedure: (§1) Cell lines were seeded into 96-well plates (5000 cells/well) in DMEM medium supplemented with 5% FBS and 1% penicillin/streptomycin.

MDA-MB-231 = experiment: as above; format: cell-based, human
Procedure: as §1

[1] = parameters: species or system Sprague-Dawley rats; conditions: rat, in vivo, sc
Procedure: Sprague-Dawley rats (female, 200-250 g) were cannulated in the left jugular vein under isoflurane and allowed to recover overnight. […] Subcutaneous injections were given in the uppermost right mammary fatpad of the animal. Whole blood was withdrawn (100 μl) from the cannula at 0, 5 min, 0.5, 1, 2, 4, 6, 12, 24, 48 and 96 hrs after dosing and placed into 2-ml centrifuge tubes pretreated with heparin. The cannula was washed before and after withdrawal with saline and then heparin locked. The whole blood was centrifuged at 17,000×g for 5 mins, and the plasma was frozen at −80° C. until analysis. Animals were euthanized […]. The right ipsilateral axilla nodes (treated side), left contralateral axilla nodes (control side), and major organs (liver, kidneys, heart, spleen, lungs, brain, muscle, bladder) were excised; washed with 0.9% saline; and stored at −80° C. until analysis. […] Typically, 50 mg of tissue sample was digested using 1.5 ml of 6.7% nitric acid for 2 hours at 80° C. After digestion, samples were homogenized (Tissue Tearor; BioSpec Products Inc., Bartlesville, Okla.) and centrifuged. The supernatant and plasma samples were analyzed by AAS as described in the Synthesis section.
In vitro release samples (n=3) and plasma samples (n=5) were diluted 200-fold and 10-fold, respectively, with 0.1% nitric acid for analysis. […]

MDA-MB-468LN = experiment: Cell proliferation over 72 hrs, resazurin blue; format: cell-based, human
Procedure: Preceding proliferation studies, cells were trypsinized and seeded into 96-well plates (5,000 cells/well). […] After 4 hrs, well fluorescence was measured (λex 560 nm, λem 590 nm) using a fluorophotometer (SpectraMax Gemini; Molecular Devices, Sunnyvale, Calif.). IC50 was determined as the midpoint between saline (positive) and cell-free (negative) controls for each plate.

[2] = Tissue distribution after subcutaneous cisplatin or cisplatin-HA into right mammary fat pad; format: in vivo, Sprague-Dawley rats
Procedure: Animals were allowed to recover with access to food and water. […] Organs and tissues were washed with 0.9% saline and frozen (−80° C.) until analysis. Plasma was separated by centrifugation from whole blood and frozen (−80° C.).
In vitro release samples (n=3) and plasma samples (n=5) were diluted 200-fold and 10-fold, respectively, with 0.1% nitric acid for analysis. […] Lymph nodes were processed similarly using 10 mg of tissue. After digestion, samples were homogenized (Tissue Tearor, BioSpec Products Inc., Bartlesville, Okla.). All samples were centrifuged (17 000×g, 20 min), and the supernate used for analysis.
Analysis was performed on a Varian SpectrAA GTA-110 with graphite furnace and partition tubes. Samples (21 μL) were injected using the autosampler, followed by 19 μL of 0.1% nitric acid. […] The furnace program was as follows: ramp 25 to 80° C., hold 2 s, ramp to 120° C., hold 10 s, ramp to 1000° C., hold 5 s, ramp to 2700° C., hold 2 s, cool to 25° C. over 20 s. The graphite partition tube was cleaned every 40 samples by baking at 2800° C. for 7 s. Argon was used as the injection and carrier gas.

MDA-1986 cells = experiment: In vivo efficacy of HA-cisplatin, orthotopic HNSCC model; parameters: species or system Nu/Nu female athymic nude mice; conditions: subcutaneous, weekly dose of 3.3 mg/kg for 3 weeks; 5 mice
Text: The in vivo efficacy of HA-cisplatin was studied. All treatment began once animal HNSCC tumors reached 100 mm3 volume. Treatment commenced for 3 weeks. All animals were given 5×10^5 MDA-1986 cells in the buccal mucosa of the left cheek (which is a novel orthotopic HNSCC model I developed this year) and tumors develop in 2-3 weeks.

Q: For [PtCl(H2O)(NH3)2]OOCO-HA [HA-cisplatin], which IC50 (MCF7; MCF-7, cisplatin basis) is on record?
A: 7 mg/L

Q: What about the IC50 (MCF7; MCF-7, read-out: IC50) of the same substance?
A: 23 µM

Q: And the IC50 (MDA-MB-231; cisplatin basis)?
A: 7 mg/L

Q: And the IC50 (MDA-MB-231; read-out: IC50)?
A: 23 µM

Q: And the “delay before plasma platinum peaked and plateaued-off” value [1]?
A: 2 h

Q: And the IC50 (MDA-MB-468LN; HA carriers on a Pt-basis equivalent to cisplatin)?
A: 10 mg/L

Q: And the IC50 (MDA-MB-468LN; Pt-basis, read-out: IC50)?
A: 33 µM

Q: And the “AUC in the right (draining axillary) lymph node, greater than cisplatin in saline” value ([2]; 96 hrs, subcutaneous, p=0.0001)?
A: 74%

Q: What about the “AUC (0-96 hrs)” value ([2]; Bladder, subcutaneous into right mammary fatpad of female rats) of the same substance?
A: 194.5 µg·h/g

Q: And the “AUC (0-96 hrs)” value ([2]; Brain, subcutaneous into right mammary fatpad)?
A: 343.7 µg·h/g

Q: What about the “AUC (0-96 hrs)” value ([2]; Heart, subcutaneous into right mammary fatpad) of the same substance?
A: 465.3 µg·h/g

Q: What about the “AUC (0-96 hrs)” value ([2]; Kidneys, subcutaneous into right mammary fatpad) of the same substance?
A: 668.6 µg·h/g

Q: And the “AUC (0-96 hrs)” value ([2]; Left lymph node (LLN), subcutaneous into right mammary fatpad)?
A: 413.4 µg·h/g

Q: What about the “AUC (0-96 hrs)” value ([2]; Liver, subcutaneous into right mammary fatpad) of the same substance?
A: 495.0 µg·h/g

Q: What about the “AUC (0-96 hrs)” value ([2]; Lungs, subcutaneous into right mammary fatpad) of the same substance?
A: 347.3 µg·h/g

Q: And the “AUC (0-96 hrs)” value ([2]; Muscle, subcutaneous into right mammary fatpad)?
A: 262.1 µg·h/g

Q: And the “AUC (0-96 hrs)” value ([2]; Plasma, subcutaneous into right mammary fatpad)?
A: 186.1 µg·h/g

Q: And the “AUC (0-96 hrs)” value ([2]; Right lymph node (RLN), subcutaneous into right mammary fatpad, p < 0.05)?
A: 776.0 ^† μg · hr/g

Q: What about the “AUC (0-96 hrs)” value ([2]; Spleen, subcutaneous into right mammary fatpad) of the same substance?
A: 383.4 µg·h/g

Q: And the “distribution of cisplatin to other organs vs cisplatin” value ([2]; over the study period)?
A: not significantly different over the study period

Q: And the “AUC in the non-draining left lymph node (LLN) vs cisplatin in saline” value ([2]; p=0.12)?
A: not significantly different from cisplatin in saline

Q: What about the “plasma AUC, difference between cisplatin-HA and cisplatin” value ([2]; p=0.13) of the same substance?
A: not a significant difference

Q: And the “serum Cmax” value ([2]; subcutaneous, 3.3 mg/kg cisplatin basis, FIG. 10B)?
A: less than 3 micrograms/mL

Q: What about the tolerability in rodents ([2]; subcutaneous, after 96 hours) of the same substance?
A: well tolerated in rodents with no signs of injection site morbidity or major organ toxicity after 96 hours

Q: And the response to therapy (MDA-1986 cells)?
A: 2 animals had a complete response to therapy and the third (HA-cis 1) had a partial response to therapy

Q: What about the tumor growth delay (MDA-1986 cells) of the same substance?
A: delayed tumor growth in all 5 animals
